Drawing on patent publication US20250075002A1, this text covers percent of αβTCR+ cells in the MUC1-positive gate (dashed box), EC50 and EMAX for four substances.

What is called EC50 is the midpoint of the concentration-response curve. A higher EC50 goes with a need for much substance.

Experiment [1] has as its target MUC1 as expressed on normal activated human T cells (human) (UniProt P15941). The experiment in a line: FACS, PHA-L-activated human PBMC, live αβTCR+ gate, Donor 191271003C; antibody 10 µg/mL by paragraph 182. (In general: In flow cytometry, cells or beads pass a laser one at a time.)
The target is the same in experiment [2]. The experiment in a line: FACS, PHA-L-activated human PBMC, live αβTCR+ gate, Donor 191271715C; antibody 10 µg/mL by paragraph 182.
The target is the same in experiment [3]. The experiment in a line: FACS, PHA-L-activated human PBMC, live αβTCR+ gate, Donor 3009223; antibody 10 µg/mL by paragraph 182.
Experiment [4] shares this target. Kind of experiment: FACS, PHA-L-activated human PBMC, live αβTCR+ gate, Donor 191180405C; antibody 10 µg/mL by paragraph 182.
Experiment [5] has the same target. Kind of experiment: FACS, PHA-L-activated human PBMC, live αβTCR+ gate, Donor 190980805C; antibody 10 µg/mL by paragraph 182.
Experiment [6] has the same target. The experiment in a line: FACS, PHA-L-activated human PBMC, live αβTCR+ gate, Donor 3011029; antibody 10 µg/mL by paragraph 182.
Experiment [7] concerns the target human CD16B (NA2) on NK92mi cells (human) (UniProt O75015). Kind of experiment: flow cytometry on NK92mi/CD16B (NA2) cells; control.
Experiment [8] addresses human CD16A (V158) on NK92mi cells (human) (UniProt P08637). The experiment in a line: flow cytometry on NK92mi/CD16A cells (V158 by paragraph 201); control.
Experiment [9] has as its target human CD16B (NA1) on NK92mi cells (human) (UniProt O75015). The experiment in a line: flow cytometry on NK92mi/CD16B (NA1) cells; control.
The target of experiment [10] is MUC1 as expressed on normal activated human T cells (human) (UniProt P15941). The experiment in a line: FACS, PHA-L-activated human PBMC, live αβTCR+ gate, Donor 190980805C; concentration of the isotype control not told.
Sequence of MUC1 as expressed on normal activated human T cells (human) (P15941 24-1255): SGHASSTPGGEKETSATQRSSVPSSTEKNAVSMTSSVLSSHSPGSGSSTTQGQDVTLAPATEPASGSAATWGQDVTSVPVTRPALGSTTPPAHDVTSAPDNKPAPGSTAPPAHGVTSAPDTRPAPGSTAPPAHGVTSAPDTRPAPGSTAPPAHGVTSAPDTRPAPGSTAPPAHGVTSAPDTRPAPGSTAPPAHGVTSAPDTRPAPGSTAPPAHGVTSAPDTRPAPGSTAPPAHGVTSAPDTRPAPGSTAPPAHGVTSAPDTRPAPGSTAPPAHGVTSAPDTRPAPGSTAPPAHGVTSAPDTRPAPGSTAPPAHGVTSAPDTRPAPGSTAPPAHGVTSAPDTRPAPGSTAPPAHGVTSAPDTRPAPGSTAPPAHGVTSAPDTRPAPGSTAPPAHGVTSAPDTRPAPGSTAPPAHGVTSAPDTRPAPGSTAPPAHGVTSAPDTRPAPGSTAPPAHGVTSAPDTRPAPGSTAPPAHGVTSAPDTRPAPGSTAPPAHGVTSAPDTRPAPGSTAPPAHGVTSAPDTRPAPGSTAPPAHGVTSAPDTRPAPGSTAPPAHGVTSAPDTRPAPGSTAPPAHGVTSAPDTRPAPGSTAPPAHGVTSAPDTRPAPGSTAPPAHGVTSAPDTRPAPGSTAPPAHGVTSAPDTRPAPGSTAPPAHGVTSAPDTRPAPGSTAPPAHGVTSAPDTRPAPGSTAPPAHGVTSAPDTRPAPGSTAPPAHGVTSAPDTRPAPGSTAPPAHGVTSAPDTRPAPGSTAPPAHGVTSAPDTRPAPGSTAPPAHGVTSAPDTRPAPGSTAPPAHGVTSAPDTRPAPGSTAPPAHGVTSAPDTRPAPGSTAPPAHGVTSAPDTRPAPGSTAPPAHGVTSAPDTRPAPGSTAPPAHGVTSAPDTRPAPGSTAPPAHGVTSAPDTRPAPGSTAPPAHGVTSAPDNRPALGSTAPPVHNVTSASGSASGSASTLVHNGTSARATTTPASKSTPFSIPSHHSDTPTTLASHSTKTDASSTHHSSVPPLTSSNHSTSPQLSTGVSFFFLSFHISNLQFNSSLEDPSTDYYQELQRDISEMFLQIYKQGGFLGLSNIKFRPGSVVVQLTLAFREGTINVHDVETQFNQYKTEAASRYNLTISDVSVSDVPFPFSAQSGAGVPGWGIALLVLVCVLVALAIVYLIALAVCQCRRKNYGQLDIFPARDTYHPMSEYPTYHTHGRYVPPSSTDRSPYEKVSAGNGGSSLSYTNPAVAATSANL
For experiment [11] the target is unchanged. The experiment in a line: FACS, PHA-L-activated human PBMC, live αβTCR+ gate, Donor 3011029; concentration of the isotype control not told.
The target is the same in experiment [12]. The experiment in a line: FACS, PHA-L-activated human PBMC, live αβTCR+ gate, Donor 191271003C; concentration of the isotype control not told.
The target is the same in experiment [13]. Kind of experiment: FACS, PHA-L-activated human PBMC, live αβTCR+ gate, Donor 191271715C; concentration of the isotype control not told.
Experiment [14] shares this target. The experiment in a line: FACS, PHA-L-activated human PBMC, live αβTCR+ gate, Donor 3011029; concentration of the isotype control not told. The source holds these as a separate data set.
Experiment [15] has the same target. Kind of experiment: FACS, PHA-L-activated human PBMC, live αβTCR+ gate, Donor 191271715C; concentration of the isotype control not told. The source holds these as a separate data set.
Experiment [16] shares this target. The experiment in a line: FACS, PHA-L-activated human PBMC, live αβTCR+ gate, Donor 3009223; concentration of the isotype control not told.
Experiment [17] has the same target. The experiment in a line: FACS, PHA-L-activated human PBMC, live αβTCR+ gate, Donor 191271003C; concentration of the isotype control not told. This is another data set of the same source.
Experiment [18] shares this target. Kind of experiment: FACS, PHA-L-activated human PBMC, live αβTCR+ gate, Donor 190980805C; concentration of the isotype control not told. This is another data set of the same source.
The target is the same in experiment [19]. Kind of experiment: FACS, PHA-L-activated human PBMC, live αβTCR+ gate, Donor 3009223; concentration of the isotype control not told. The source holds these as a separate data set.
For experiment [20] the target is unchanged. The experiment in a line: FACS, PHA-L-activated human PBMC, live αβTCR+ gate, Donor 191180405C; concentration of the isotype control not told.
Experiment [21] shares this target. The experiment is described as above. This is another data set of the same source.

Sequence of human CD16A (V158) on NK92mi cells (human) (P08637 17-254 F176V limits assumed): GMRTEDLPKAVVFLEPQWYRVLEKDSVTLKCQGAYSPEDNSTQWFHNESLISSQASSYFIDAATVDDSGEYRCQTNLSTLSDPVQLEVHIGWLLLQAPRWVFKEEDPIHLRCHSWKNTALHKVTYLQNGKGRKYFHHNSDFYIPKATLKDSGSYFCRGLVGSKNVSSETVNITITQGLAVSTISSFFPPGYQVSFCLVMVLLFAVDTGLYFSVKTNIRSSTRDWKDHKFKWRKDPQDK
Sequence of human CD16B (NA1) on NK92mi cells (human) (O75015 other isoform, or with tags, fused parts or gaps limits assumed): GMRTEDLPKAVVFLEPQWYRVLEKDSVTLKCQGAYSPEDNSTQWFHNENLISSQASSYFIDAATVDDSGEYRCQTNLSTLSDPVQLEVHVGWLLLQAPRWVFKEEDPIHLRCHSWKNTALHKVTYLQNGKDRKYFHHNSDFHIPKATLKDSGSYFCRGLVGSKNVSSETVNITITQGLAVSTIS
Sequence of human CD16B (NA2) on NK92mi cells (human) (O75015 17-200 N65S limits assumed): as the sequence (O75015 other isoform, or with tags, fused parts or gaps limits assumed) above, with R20S, N49S, D66N, V90I counted along it

With “16A (Biolegend, cat. #355608) (antibody)”, the results for the percent of αβTCR+ cells in the MUC1-positive gate (dashed box) in [1] and in experiment [2] were 16.9% and 16.5%, respectively.
With “HMFG1 (Abcam, cat. #ab215670) (antibody)”, the percent of αβTCR+ cells in the MUC1-positive gate (dashed box) in experiment [3] amounted to 10%; in experiment [4], 28.1%; in experiment [5], 28.2%; in experiment [6], 23.2%.
For “Human IgG (control column of Tables 10-12) (antibody)”, the values for the EC50 in experiment [7], in experiment [8] and in experiment [9] were 0.314 µg/mL, 0.0112 µg/mL and 10.3 µg/mL, respectively. In addition, the EMAX stood at 7.66 in experiment [7], 7.55 in experiment [8] and 7.46 in experiment [9].
For the substance Isotype (antibody), the percent of αβTCR+ cells in the MUC1-positive gate (dashed box) was 1.86% in experiment [10]; 0.26% in experiment [11]; 0.91% in experiment [12]; 0.04% in experiment [13]; 0.36% in [14]; 1.04% in [15]. Besides, the percent of αβTCR+ cells in the MUC1-positive gate (dashed box) in experiment [16] was 1.17%; in experiment [17], 0.11%; in [18], 0.15%; in experiment [19], 0.05%; in experiment [20], 2.49%; in experiment [21], 0.29%.
